Measured values published in US20250090699A1, “FAP TARGETING CYCLIC PEPTIDES AND CONJUGATES THEREOF” (Novartis AG, priority 2023, published 2025).
Read-outs that look alike come from different tables or passages of the source. Starred links: 1 amine or outer side, 2 acyl side, 3 side chain; linkers in the order of their positions; H or OH if unused. Positions of bridges follow the written chain, without caps; N, C: chain ends. Non-standard residues stand in square brackets, D forms with d. Residues, ends and D or L forms follow the SMILES beside them. Groups on a side chain read outwards from the residue. Chains are numbered I, II in the order given. *: point of attachment. F4(amMeGlyDOTALu) = lutetium complex of (S)-2,2',2''-(10-(2-((2-((4-(2-amino-2-carboxyethyl)benzyl)amino)-2-oxoethyl)(methyl)amino)-2-oxoethyl)-1,4,7,10-tetraazacyclododecane-1,4,7-triyl)triacetic acid (Phe with 4-aminomethyl-N-methyl-Gly-D, CN(CC(=O)NCc1ccc(C[C@H](N[*:1])C(=O)[*:2])cc1)C(=O)CN1CCN(CC(=O)[O-])CCN(CC(=O)[O-])CCN(CC(=O)[O-])CC1.[Lu+3]; F(4OEtNHDOTA-Lu) = lutetium complex of (S)-2,2',2''-(10-(2-((2-(4-(2-amino-2-carboxyethyl)phenoxy)ethyl)amino)-2-oxoethyl)-1,4,7,10-tetraazacyclododecane-1,4,7-triyl)triacetic acid (Phe with 4-O-ethylamino-DOTA-Lu), O=C([O-])CN1CCN(CC(=O)[O-])CCN(CC(=O)NCCOc2ccc(C[C@H](N[*:1])C(=O)[*:2])cc2)CCN(CC(=O)[O-])CC1.[Lu+3]; X2 = O=C(O)CN1CCN(CC(=O)O)CCN(CC(=O)NC(CC(=O)NCCOCCOCCOCC(=O)[*:1])CC(=O)NCCOCCOCCOCC(=O)[*:2])CCN(CC(=O)O)CC1; X1 = O=C(O)CN1CCN(CC(=O)O)CCN(CC(=O)NC(CC(=O)NCCOCCOCC(=O)[*:1])CC(=O)NCCOCCOCC(=O)[*:2])CCN(CC(=O)O)CC1; Phe(4-CH2NH2) = NCc1ccc(C[C@H](N)C(=O)O)cc1; Piperazinyl(4-CH2COOH) = O=C(O)CN1CCN(*)CC1; AEF = NCCOc1ccc(C[C@H](N)C(=O)O)cc1; NMeF = CN[C@@H](Cc1ccccc1)C(=O)O; Ahp(2) = CCCCC[C@H](N)C(=O)O; hSer = N[C@@H](CCO)C(=O)O; CO = O=C([*:1])[*:2]; Propyl = CCC*

Experiments:
mouse FAP [1] = target: T1, mouse FAP (Mus musculus, UniProt P97321); assay: Surface plasmon resonance (SPR) for peptide affinity, mouse FAP; assay type: binding
T1 construct: biotinylated His, Avi tag, mouse FAP (26-761, FAP-M82Q5); His; Avi tag (biotinylated); purchased AcroBiosystems FAP-M82Q5
T1 sequence (P97321 26-761): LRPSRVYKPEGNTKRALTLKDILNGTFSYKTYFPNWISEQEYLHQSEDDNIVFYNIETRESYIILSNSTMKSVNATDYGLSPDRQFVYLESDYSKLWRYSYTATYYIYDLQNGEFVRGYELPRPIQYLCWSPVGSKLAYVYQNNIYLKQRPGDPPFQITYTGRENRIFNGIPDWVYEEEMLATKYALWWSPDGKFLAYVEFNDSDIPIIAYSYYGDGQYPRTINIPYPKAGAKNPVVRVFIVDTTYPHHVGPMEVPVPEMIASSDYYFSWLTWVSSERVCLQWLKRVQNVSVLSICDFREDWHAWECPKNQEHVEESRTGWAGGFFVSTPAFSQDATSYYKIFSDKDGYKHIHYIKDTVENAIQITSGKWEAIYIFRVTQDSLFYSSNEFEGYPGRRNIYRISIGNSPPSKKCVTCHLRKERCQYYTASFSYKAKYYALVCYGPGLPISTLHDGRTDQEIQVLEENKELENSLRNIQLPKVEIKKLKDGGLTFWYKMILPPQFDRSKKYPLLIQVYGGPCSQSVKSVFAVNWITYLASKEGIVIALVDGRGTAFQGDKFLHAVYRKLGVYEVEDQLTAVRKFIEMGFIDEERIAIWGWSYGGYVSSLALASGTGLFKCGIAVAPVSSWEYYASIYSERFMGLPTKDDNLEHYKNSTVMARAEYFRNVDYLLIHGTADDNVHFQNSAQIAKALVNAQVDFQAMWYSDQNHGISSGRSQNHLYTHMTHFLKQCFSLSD
Method in brief: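 Biotinylated His/Avi-tagged FAP ectodomains (human 26-760, mouse 26-761) captured or immobilized on Biacore sensor chips; peptides run at 25 °C in HBS-EP+ pH 7.6 with 2% DMSO, single-cycle kinetics, 8 concentrations. KD from 1:1 binding-model fit of sensorgrams.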

human FAP [2] = target: T2, human FAP (Homo sapiens, UniProt Q12884); assay: Surface plasmon resonance (SPR) for peptide affinity, human FAP; assay type: binding; conditions: read-out: h. FAP, SPR, KD
T2 construct: the biotinylated His, Avi tag, human FAP (26-760, FAP-H82Q6); His; Avi tag (biotinylated); purchased AcroBiosystems FAP-H82Q6
T2 sequence (Q12884 26-760): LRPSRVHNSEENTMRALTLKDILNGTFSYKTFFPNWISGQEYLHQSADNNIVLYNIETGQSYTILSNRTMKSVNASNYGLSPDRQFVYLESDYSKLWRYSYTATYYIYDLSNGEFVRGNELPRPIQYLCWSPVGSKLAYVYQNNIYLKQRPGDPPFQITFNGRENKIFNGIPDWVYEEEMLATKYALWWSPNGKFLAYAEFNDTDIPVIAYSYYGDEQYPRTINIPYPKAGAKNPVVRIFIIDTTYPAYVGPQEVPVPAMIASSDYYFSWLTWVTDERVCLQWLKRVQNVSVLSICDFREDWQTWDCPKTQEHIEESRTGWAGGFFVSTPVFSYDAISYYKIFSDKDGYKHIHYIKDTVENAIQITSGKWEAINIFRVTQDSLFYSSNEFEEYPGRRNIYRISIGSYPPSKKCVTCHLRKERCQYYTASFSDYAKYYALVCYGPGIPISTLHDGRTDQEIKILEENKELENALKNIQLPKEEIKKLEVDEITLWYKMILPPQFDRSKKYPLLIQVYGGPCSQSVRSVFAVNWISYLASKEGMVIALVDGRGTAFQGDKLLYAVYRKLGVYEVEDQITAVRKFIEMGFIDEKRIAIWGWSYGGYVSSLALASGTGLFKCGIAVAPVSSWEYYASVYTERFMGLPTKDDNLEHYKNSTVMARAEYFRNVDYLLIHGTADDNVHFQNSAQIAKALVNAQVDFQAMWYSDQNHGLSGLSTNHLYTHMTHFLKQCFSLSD
Description: Peptide affinities (KD) were determined by SPR using a Biacore™ 8K device (Cytiva) towards the following proteins: biotinylated His, Avi tag, human FAP (26-760, FAP-H82Q6), biotinylated His, Avi tag, mouse FAP (26-761, FAP-M82Q5), His tag, human DPP4 (34-766, DP4-H82E3), all purchased from AcroBiosystems and His tag, mouse DPP4 (29-760, 954-SE) from R&D Systems. The FAP proteins and their homologous were diluted to a concentration of 2 μg/mL into acetate buffer pH 5.5, then immobilized onto a CM5 sensorchip (Cytiva, BR-1005-30) to reach a response around 2000 R U. The running buffer HBS-EP+pH 7.6 (20× from Teknova CAT. No: H8022) contained 10 mM HEPES pH 7.6, 150 mM NaCl, 3 mM EDTA, 0.05% Tween20 and 2% DMSO. Experiments were carried out at 25° C. using a flow rate of 30 μL/min. Compounds were tested in single cycle kinetic mode at 8 different concentrations. Curve fitting was performed using the Biacore™ 8K evaluation software. The sensorgrams were fitted by applying a 1:1 binding model to calculate kinetic rate constants and equilibrium dissociation constants (KD).
For this assay, the setup had the same conditions (flow rate, running buffer, peptide dilution) as described above for the CM5 method. The oligo CAP reagent obtained in the CAPture Kit (Ref. 28920234) was 1/5 diluted into running buffer and used with a contact time of 300 s at a flow rate of 2 μL/min. The human and mouse FAP constructs described above were used (from AcroBiosystems or produced in house). The FAP proteins were diluted to a concentration of 2 μg/mL into acetate pH 5.5, 0.05% Tween20 and used with a contact time of 600 s at a flow rate of 10 μL/min. The peptides were tested with an association time of 280 s followed by a dissociation time of 3000 s at a flow rate of 30 μL/min. The regeneration was done using the regeneration solution (8 M guanidine-HCl, 1 M NaOH) as obtained with a contact time of 270 s at a flow rate of 10 μL/min. […] The compounds marked with an asterisk were tested against human and mouse DDP4.

human FAP [3] = target: T2, human FAP; assay: Enzymatic FAP competition assay (Z-Gly-Pro-AMC fluorescence), human FAP; assay type: biochemical; conditions: read-out: h. FAP, Enz., IC50
Method in brief: (§1)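 Biotinylated His/Avi-tagged FAP ectodomain (human 26-760, mouse 26-761) at 0.01 nM, preincubated 24 h with peptides (14 concentrations, up to 1 μM) in pH 7.5 phosphate, 150 mM NaCl, 0.05% Tween20, 1% DMSO. Then 50 μM Z-Gly-Pro-AMC, 4 h at 22-24° C; AMC fluorescence (380/460 nm) gave IC50 from duplicate points.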

mouse FAP [4] = target: T1, mouse FAP; assay: Enzymatic FAP competition assay (Z-Gly-Pro-AMC fluorescence), mouse FAP; assay type: biochemical; conditions: read-out: m. FAP, Enz., IC50
Method in brief: as §1

Compound | Kd (mouse FAP [1]) | Kd (human FAP [2]) | IC50 (human FAP [3]) | IC50 (mouse FAP [4]) | Kd (mouse FAP [1]; values marked ** : including further experimental repetition)
CCCOCC[C@@H]1NC(=O)[C@H](Cc2ccc(CNC(=O)COCCOCCNC(=O)CC(CC(=O)NCCOCCOCC(=O)NCc3ccc(C[C@@H]4NC(=O)[C@H](Cc5ccccc5)N(C)C(=O)CNC(=O)CNC(=O)[C@H]5CCCN5C(=O)[C@H](CC(=O)O)NC(=O)[C@H](CCCCNC(=O)N5CCN(CC(=O)O)CC5)NC(=O)CNC(=O)[C@H](Cc5c[nH]c6ccccc56)NC(=O)[C@H](CCOCCC)NC4=O)cc3)NC(=O)CN3CCN(CC(=O)O)CCN(CC(=O)O)CCN(CC(=O)O)CC3)cc2)NC(=O)[C@H](Cc2ccccc2)N(C)C(=O)CNC(=O)CNC(=O)[C@H]2CCCN2C(=O)[C@H](CC(=O)O)NC(=O)[C@H](CCCCNC(=O)N2CCN(CC(=O)O)CC2)NC(=O)CNC(=O)[C@H](Cc2c[nH]c3ccccc23)NC1=O [Example M3] (I: cyclo(GG[NMeF][Phe(4-CH2NH2)][hSer](Propyl)WGK([CO-Piperazinyl(4-CH2COOH)])D[dP]) / II: cyclo(GG[NMeF][Phe(4-CH2NH2)][hSer](Propyl)WGK([CO-Piperazinyl(4-CH2COOH)])D[dP]); linker I:4-II:4 via X1) | < 0.078 nM | < 0.043 nM | 0.035 nM | 0.144 nM | 
CCCCC[C@@H]1NC(=O)[C@H](Cc2ccc(OCCNC(=O)COCCOCCOCCNC(=O)CC(CC(=O)NCCOCCOCCOCC(=O)NCCOc3ccc(C[C@@H]4NC(=O)[C@H](Cc5ccccc5)N(C)C(=O)CNC(=O)[C@H](CCCCNC(=O)N5CCN(CC(=O)O)CC5)NC(=O)[C@H]5CCCN5C(=O)[C@H](CC(=O)O)NC(=O)[C@H](Cc5ccc(O)cc5)NC(=O)CNC(=O)[C@H](Cc5c[nH]c6ccccc56)NC(=O)[C@H](CCCCC)NC4=O)cc3)NC(=O)CN3CCN(CC(=O)O)CCN(CC(=O)O)CCN(CC(=O)O)CC3)cc2)NC(=O)[C@H](Cc2ccccc2)N(C)C(=O)CNC(=O)[C@H](CCCCNC(=O)N2CCN(CC(=O)O)CC2)NC(=O)[C@H]2CCCN2C(=O)[C@H](CC(=O)O)NC(=O)[C@H](Cc2ccc(O)cc2)NC(=O)CNC(=O)[C@H](Cc2c[nH]c3ccccc23)NC1=O [Example M4] (I: cyclo(K([CO-Piperazinyl(4-CH2COOH)])G[NMeF][AEF][Ahp(2)]WGYD[dP]) / II: cyclo(K([CO-Piperazinyl(4-CH2COOH)])G[NMeF][AEF][Ahp(2)]WGYD[dP]); linker I:4-II:4 via X2) | 0.51 nM | 0.32 nM | 0.38 nM | 1.1 nM | 
Gly-Gly-NMePhe-F4(amMeGlyDOTALu)-Ahp-Trp-Gly-Tyr-Asp-D-Pro (cyclo(GG[NMeF][F4(amMeGlyDOTALu)][Ahp(2)]WGYD[dP]); also: Lu complex) [Example C8] | 0.006 nM | 0.004 nM | 0.007 nM | 0.012 nM | 
Gly-Gly-NMePhe-F(4OEtNHDOTA-Lu)-Ahp-Trp-Gly-Tyr-Asp-D-Pro (cyclo(GG[NMeF][F(4OEtNHDOTA-Lu)][Ahp(2)]WGYD[dP]); also: Lu complex of DOTA) [Example C23] | < 0.011 nM | < 0.009 nM | 0.016 nM | 0.061 nM | < 0.06 nM
